# Assay results from patent US12552837B2, “Bicyclic peptide ligands with detectable moieties and uses thereof” (BicycleRD Limited, priority 2017, dated 2026).
# *1 amine or outer side, *2 acyl side, *3 side chain or, on linkers, in order; H or OH if unused. Where a SMILES comes first, the peptide text is derived from it. Bridges are numbered along the chain shown (N, C = ends). [ ]: non-standard residue; d: D form. The star is where a group is joined. DOTA = O=C(O)CN1CCN(CC(=O)O)CCN(CC(=O)*)CCN(CC(=O)O)CC1; 1Nal = N[C@@H](Cc1cccc2ccccc12)C(=O)O; TBMB = c1c(C[*:1])cc(C[*:3])cc1C[*:2]; Tle = CC(C)(C)[C@H](N)C(=O)O
# Tested on: xenograft tumor
# Assay: μPET imaging with 68Ga-labelled Bicycle peptides in xenograft mice
# Format: in vivo
# Conditions: 150 pmoles
# Protocol: General method for μPET imaging: the mice were anaesthetized (2% sevoflurane, Abbott), placed into the small animal PET scanner (Inveon PET, Siemens) and injected with 68Ga-labeled Bicycle peptides. A 20 min transmission scan, a 50 min dynamic scan and a static scan from 100 to 120 min p.i. were performed. Images were reconstructed iteratively using the space alternating generalized expectation maximization method (SAGE, 16 subsets, 4 iterations) applying median root prior correction and were converted to standardized uptake value (SUV) images. Quantitation was done using a ROI (region of interest) technique and expressed as SUVmean.
# General method for radiolabeling with Ga-68: ^68Ga (half-life 68 min; β^+ 89%; Eβ+max. 1.9 MeV) was obtained from a in house ^68Ge/^68Ga generator based on pyrogallol resin support. 1 GBq ^68Ga was eluted using 5.5 M HCl. The activity was trapped on a small anion-exchanger cartridge (AG1X8, Biorad, Richmond, CA, USA) as [^68Ga]GaCl4^−. The radiogallium was eluted from the cartridge in a final volume of 300 μL ultrapure water (Merck, Darmstadt, Germany) as [^68Ga]GaCl3.
# 1 nmol Bicycle peptide in 1 μL DMSO was added to a mixture of 50 μL 0.05 M HEPES, 0.1% Tween-20, and 80 μL [^68Ga]Ga^3+ eluate (˜200 MBq). The pH of the labelling solution was adjusted to 4.2 using 30% NaOH. The reaction mixture was incubated at 98° C. for 10 minutes. The radiochemical yield (RCY) was determined using reversed-phase high performance liquid chromatography (RP-HPLC; Chromolith RP-18e, 100×4.6 mm; Merck, Darmstadt, Germany). The analytical HPLC run was performed using a linear A-B gradient (0% B to 100% B in 6 min) at a flow rate of 4 mL/min. Solvent A consisted of 0.1% aqueous TFA and solvent B was 0.1% TFA in CH3CN.
# For μPET imaging, the labelling reaction mixture was diluted in injection buffer (0.25 M Na-Acetate 0.05% Tween-20 pH 7) by a factor of 6 to obtain 150 pmoles in 100 μL injection buffer. The anaesthetized mouse (2% sevoflurane, Abbott) was injected with 100 μL of ^68Ga-labelled I-23 (˜25 MBq) and placed in a small animal PET scanner (Inveon PET, Siemens). The imaging was performed 60 min post-injection and included a 15 min transmission scan before injection and a 60 min emission scan post-injection. Scans from μPET imaging were reconstructed iteratively using the space alternating generalized expectation maximization method (SAGE, 16 subsets, 4 iterations) applying median root prior correction and were converted to standardized uptake value (SUV) images. Quantitation was accomplished using an ROI (region of interest) technique and expressed as SUVmean.
# The radiolabelling with Ga-68 was done as described before. […] Quantitation was accomplished using an ROI (region of interest) technique and expressed as SUVmean. […]
compound,measurement,value
C[C@H](NC(=O)CN1CCN(CC(=O)O)CCN(CC(=O)O)CCN(CC(=O)O)CC1)C(=O)N[C@H]1CSCc2cc3cc(c2)CSC[C@H](NC(=O)[C@@H](C)NC(=O)[C@H](Cc2cccc4ccccc24)NC(=O)[C@H](CCC(=O)O)NC(=O)[C@H](CC(N)=O)NC(=O)[C@@H](C)NC1=O)C(=O)N[C@@H](CCC(=O)O)C(=O)N[C@@H](CC(=O)O)C(=O)N[C@@H](Cc1ccccc1)C(=O)N[C@@H](Cc1ccc(O)cc1)C(=O)N[C@@H](CC(=O)O)C(=O)N[C@@H](C(C)(C)C)C(=O)N[C@H](C(N)=O)CSC3 [I-23] ({DOTA}-AC[dA]NE[1Nal][dA]CEDFYD[Tle]C-NH2; linker 2-8-15 via TBMB),time post injection from which high imaging contrasts are seen,20 min
same,tumor uptake in μPET images,MMP-14-selective tumor uptake
